Results on 2 molecules are retold here after patent publication US20230057904A1 (Chugai, published 2023).

The target in assay [1] is T1, human CLDN3 (human, UniProt O15551 1-220).
T1 construct: also called hCLDN3; hCLDN3/BaF
T1 sequence: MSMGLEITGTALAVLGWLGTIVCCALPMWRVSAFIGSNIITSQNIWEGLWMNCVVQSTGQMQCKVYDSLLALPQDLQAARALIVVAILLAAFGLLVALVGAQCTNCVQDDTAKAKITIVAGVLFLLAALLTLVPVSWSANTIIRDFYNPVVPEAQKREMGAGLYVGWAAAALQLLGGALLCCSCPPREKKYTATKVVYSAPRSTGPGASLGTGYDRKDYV
Put plainly: flow cytometry, FreeStyle 293-F transfectants expressing human CLDN3, anti-human IgG Alexa Fluor 647; MFI. As for the experimental part:
(§1) Antibodies were mixed with FreeStyle™ 293-F cells transiently expressed human and mouse CLDN3, 4, 6, and 9 at final concentration of 10 micro g/mL. After 1 hour of incubation, cells were washed by 0.1% BSA containing D-PBS(−), and incubated in 5 micro g/mL of either Goat anti-Human IgG (H+L) Cross-Adsorbed Secondary Antibody, Alexa Fluor 647 (Invitrogen, A21445) or Goat anti-Mouse IgG (H+L) Highly Cross-Adsorbed Secondary Antibody, Alexa Fluor 647 (Invitrogen, A21236), for 1 hour. Cells were then washed with 0.1% BSA containing D-PBS(−), resuspended in 5 micro L of 0.1% BSA containing D-PBS(−), and analyzed by flow cytometer (iQue Screener, intellicyte).
In general terms: In flow cytometry, cells or beads pass a laser one at a time.

Assay [2] has as its target T2, human CLDN4 (human, UniProt O14493 1-209).
T2 construct: also called hCLDN4; hCLDN4/BaF
T2 sequence: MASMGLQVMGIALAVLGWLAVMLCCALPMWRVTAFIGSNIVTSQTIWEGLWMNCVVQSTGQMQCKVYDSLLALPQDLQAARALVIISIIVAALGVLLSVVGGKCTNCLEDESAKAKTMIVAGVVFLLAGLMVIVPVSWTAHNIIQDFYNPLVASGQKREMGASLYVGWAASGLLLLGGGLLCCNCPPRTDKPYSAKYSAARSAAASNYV
As to the kind of experiment: flow cytometry, FreeStyle 293-F transfectants expressing human CLDN4, anti-human IgG Alexa Fluor 647; MFI.

Assay [3] has as its target T3, mouse CLDN3 (mouse, UniProt Q9Z0G9 1-219).
T3 construct: also called mCLDN3; mCLDN3/FS293
T3 sequence: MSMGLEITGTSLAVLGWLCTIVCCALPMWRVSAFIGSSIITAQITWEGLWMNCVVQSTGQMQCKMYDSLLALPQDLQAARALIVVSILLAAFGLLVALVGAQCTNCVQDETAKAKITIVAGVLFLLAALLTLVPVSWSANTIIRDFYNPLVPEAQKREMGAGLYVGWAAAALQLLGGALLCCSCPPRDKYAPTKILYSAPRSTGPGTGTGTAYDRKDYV
Put plainly: flow cytometry, FreeStyle 293-F transfectants expressing mouse CLDN3, anti-human IgG Alexa Fluor 647; MFI. As for the experimental part:
as §1

Assay [4] addresses T4, mouse CLDN4 (mouse, UniProt O35054 1-210).
T4 construct: also called mCLDN4; mCLDN4/FS293
T4 sequence: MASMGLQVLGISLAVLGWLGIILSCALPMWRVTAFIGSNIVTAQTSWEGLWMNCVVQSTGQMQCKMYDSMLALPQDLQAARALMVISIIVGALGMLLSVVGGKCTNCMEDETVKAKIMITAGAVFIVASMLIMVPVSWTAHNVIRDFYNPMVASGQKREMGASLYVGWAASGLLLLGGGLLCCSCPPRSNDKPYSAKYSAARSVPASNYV
Put plainly: flow cytometry, FreeStyle 293-F transfectants expressing mouse CLDN4, anti-human IgG Alexa Fluor 647; MFI. As for the experimental part: as §1

For assay [5], the target named is T5, human CLDN9 (human, UniProt O95484 1-217).
T5 construct: also called hCLDN9; hCLDN9/BaF
T5 sequence: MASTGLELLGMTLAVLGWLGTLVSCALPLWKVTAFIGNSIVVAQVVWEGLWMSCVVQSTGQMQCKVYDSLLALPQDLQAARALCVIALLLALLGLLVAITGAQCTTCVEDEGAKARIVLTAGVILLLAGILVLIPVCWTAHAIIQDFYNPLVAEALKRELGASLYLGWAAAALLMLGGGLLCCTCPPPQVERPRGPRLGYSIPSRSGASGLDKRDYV
As to the kind of experiment: flow cytometry, FreeStyle 293-F transfectants expressing human CLDN9, anti-human IgG Alexa Fluor 647; MFI. As to the method:
as §1

Assay [6] concerns the target T6, mouse CLDN9 (mouse, UniProt Q9Z0S7 1-217).
T6 construct: also called mCLDN9; mCLDN9/FS293
T6 sequence: T5 sequence with I86V, I124L, A128S, P188S, Q189H, V190F
As to the kind of experiment: flow cytometry, FreeStyle 293-F transfectants expressing mouse CLDN9, anti-human IgG Alexa Fluor 647; MFI. As to the method: as §1

The target of assay [7] is T7, mouse CLDN6 (mouse, UniProt Q9Z262 1-219).
T7 construct: also called mCLDN6; mCLDN6/FS293
T7 chain: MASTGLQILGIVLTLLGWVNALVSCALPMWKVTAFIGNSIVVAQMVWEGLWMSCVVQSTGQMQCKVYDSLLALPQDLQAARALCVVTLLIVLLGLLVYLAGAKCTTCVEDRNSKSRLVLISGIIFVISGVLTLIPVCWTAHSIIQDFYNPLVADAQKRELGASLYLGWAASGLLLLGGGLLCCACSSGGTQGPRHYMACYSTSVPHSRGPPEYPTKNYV
Put plainly: flow cytometry, FreeStyle 293-F transfectants expressing mouse CLDN6, 10 micro g/mL antibody, anti-human IgG Alexa Fluor 647; MFI. As to the method:
as §1

For assay [8], the target named is T2, human CLDN4. As to the kind of experiment: flow cytometry on hCLDN4/BaF (Ba/F3 transfectant), Alexa Fluor 488 anti-human IgG; histogram against KLH/TR01. As for the experimental part: Amino acid sequence are highly conserved among CLDN3, CLDN4, CLDN6 and CLDN9. Thus we examined CLDN6 binding specificity by FACS analysis. hCLDN6/BaF, hCLDN3/BaF, hCLDN4/BaF, and hCLDN9/BaF were incubated with CS2201, CS2961, AH05/TR01 and 6PHU3/TR01 at 15 micro g/ml. KLH/TR01 generated in Example 2-3 was used as a staining control. Binding of each antibody was detected with Alexa Fluor 488-conjugated anti human IgG (Invitrogen). Dead cells were separated by eFlour 780 (Invitrogen) staining.

Substitutions are numbered along the chain they refer to.

B1: CDA0013/TR01 (bispecific antibody, V domains shown)
VH 1: QSLEESGGRLVTPGTPLTLTCTVSGIDLNNYGVGWVRQPPGKGLEWIGYINALGSAYYASWAKGRFTISRTSTTVDLKITSPTTEDTATYFCARVRYLYIGGGGYWIDRLDLWGQGTLVTVSS
VL 1: DVVMTQTPASVEAAVGDTVTIKCQASQSISSCLSWYQQKPGQPPKLLIYYASTLASGVPSRFSGSGSGTEFTLTISGLQCDDAATYYCLGVVSYVSADGGFGGGTEVVVK
VH 2: QVQLVESGGGVVQPGGSLRLSCAASGFTFSNAWMHWVRQAPGKGLEWVAQIKDKSQNYATYVAESVKGRFTISRADSKNSIYLQMNSLKTEDTAVYYCRYVHYAAGYGVDIWGQGTTVTVSS
VL 2: DIVMTQSPLSLPVTPGEPASISCRSSQPLVHSNRNTYLHWYQQKPGQAPRLLIYKVSNRFSGVPDRFSGSGSGTDFTLKISRVEAEDVGVYYCGQGTQVPYTFGQGTKLEIK
notes: CDA0013 is rabbit-derived; IgG format by Fab arm exchange, silent Fc; also called anti-CLDN6/CD3 bispecific antibody CDA0013/TR01
Regarding B1, the binding result in assay [1], in assay [2], in assay [3], in assay [4], in assay [5] and in assay [6] was “no binding (tested: 10 micro g/mL)” each time. In addition, in assay [7], the binding result is recorded as “binds”.

B2: 6PHU3/TR01 (bispecific antibody, V domains shown)
VH 1: EVQLQQSGPELVKPGASMKISCKASGYSFTGYTMNWVKQSHGKNLEWIGLINPYNGGTIYNQKFKGKATLTVDKSSSTAYMELLSLTSEDSAVYYCARDYGFVLDYWGQGTTLTVSS
VL 1: DIVLTQSPSIMSVSPGEKVTITCSASSSVSYMHWFQQKPGTSPKLCIYSTSNLASGVPARFSGRGSGTSYSLTISRVAAEDAATYYCQQRSNYPPWTFGGGTKLEIK
VH 2: B1 VH 2
VL 2: B1 VL 2
notes: IgG format by Fab arm exchange, silent Fc; also called anti-CLDN6/CD3 bispecific antibody 6PHU3/TR01
In the case of B2, the binding result in assay [1] was “no binding (tested: 10 micro g/mL)”; in assay [3], “no binding (tested: 10 micro g/mL)”; in assay [4], “no binding (tested: 10 micro g/mL)”; in assay [8], “no binding (tested: 15 micro g/ml)”; in assay [7], “binds”.
